The text below walks through data of US20180179273A1 (H LUNDBECK A S, published 2018).

Where “and” joins values, the source holds several entries; their conditions need not be identical. Equal values may be shown once. Read-outs that look alike come from different tables or passages of the source.

The target of test [1] is T1, human alpha-synuclein (human, UniProt P37840 1-140). As to the kind of experiment: SPR BIAcore 3000, antibody captured by goat anti-human IgG on CM5 chip, human alpha-synuclein as analyte; calculated binding constants [continued) C].
The target in test [2] is T1, human alpha-synuclein. As to the kind of experiment: SPR BIAcore T200, human alpha-synuclein immobilised, antibody as analyte, 1:1 binding fit. In general terms: In SPR one partner is held on a chip, and binding of the other changes the refractive index at the surface.
Test [3] deals with T2, human beta-synuclein (human, UniProt Q16143 1-134).
T2 construct: Screening ligand; also called Beta Panel
As to the kind of experiment: Octet (ForteBio), antibody coupled to amine-reactive sensors, synuclein in solution [Human beta-syn]. On the technique in general: BLI is a label-free optical method that tracks binding on a fibre tip over time.
From the text: (§1) Amine reactive sensors (ForteBio, art. no. 18-0008) were used for immobilization of HuMabs. […] Activated sensors were immobilized with HuMabs during 600 seconds.

Test [4] has as its target T3, human gamma-synuclein (human, UniProt O76070 1-127).
T3 construct: Screening ligand; also called Gamma Panel
As to the kind of experiment: Octet (ForteBio), antibody coupled to amine-reactive sensors, synuclein in solution [continued), Human gamma-syn].
From the text: as §1

Test [5] addresses T1, human alpha-synuclein. As to the kind of experiment: SPR BIAcore 3000, antibody captured by goat anti-human IgG on CM5 chip, human alpha-synuclein as analyte; calculated binding constants [continued) C]. The source holds these as a separate data set.
In test [6] the target is T2, human beta-synuclein. As to the kind of experiment: Octet (ForteBio), antibody coupled to amine-reactive sensors, synuclein in solution [continued), Human beta-syn].
For test [7], the target named is T3, human gamma-synuclein. As to the kind of experiment: Octet (ForteBio), antibody coupled to amine-reactive sensors, synuclein in solution [continued), Human gamma-syn]. This is another data set of the same source.
Test [8] deals with T1, human alpha-synuclein. As to the kind of experiment: SPR BIAcore 3000, antibody captured by goat anti-human IgG on CM5 chip, human alpha-synuclein as analyte; calculated binding constants [continued) C]. This is another data set of the same source.
The target in test [9] is T1, human alpha-synuclein. As to the kind of experiment: SPR Biacore 3000, synuclein ligand format.
Test [10] concerns the target T1, human alpha-synuclein. As to the kind of experiment: SPR Biacore 3000, IgG captured by anti-human IgG on CM5 chip.
For test [11], the target named is T1, human alpha-synuclein. The test is described as above. This is another data set of the same source.

T3 sequence (O76070 whole entry): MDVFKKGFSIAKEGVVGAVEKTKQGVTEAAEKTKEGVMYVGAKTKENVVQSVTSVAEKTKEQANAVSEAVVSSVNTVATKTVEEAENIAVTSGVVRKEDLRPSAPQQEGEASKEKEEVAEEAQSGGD
T2 sequence (Q16143 whole entry): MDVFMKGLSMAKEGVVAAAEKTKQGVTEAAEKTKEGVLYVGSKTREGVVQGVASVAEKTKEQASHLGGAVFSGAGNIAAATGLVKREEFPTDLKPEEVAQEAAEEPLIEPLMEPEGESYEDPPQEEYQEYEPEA

B1: 9E4 (antibody, V domains shown)
VH: EVQLVESGGGLVQPGGSLRLSCAASGFTFSNYGMSWVRQAPGKGLEWVASISSGGGSTYYPDNVKGRFTISRDNAKNSLYLQMNSLRAEDTAVYYCARGGAGIDYWGQGTLVTVSS
VL: DIQMTQSPSSLSASVGDRVTITCKSIQTLLYSSNQKNYLAWFQQKPGKAPKLLIYWASIRKSGVPSRFSGSGSGTDFTLTISSLQPEDLATYYCQQYYSYPLTFGGGTKLEIKR
notes: Generated from the VH and VL of hybridoma PTA-8221; also called comparator antibody 9E4
Consider B1, for which, in test [1], the Ka is 2.58e+08 M⁻¹ and the Kd is 3.88 nM.

B2: GM37 (antibody, V domains shown)
VH: EVQLLESGGGLVQTGGSLRLSCAASGFTFSSYAMTWVRQAPGKGLEWVSAIRSNGDRTDYADSVKGRFTISRDNSQNTLYLQMNSLRAEDTAVYYCAKNWAPFDSWGQGTLVT
VL: not shown
notes: also called GM37wt; GM37 wt
Turning to B2, in [2], the Kd is 27 nM and 28 nM; the koff is 0.0192 s⁻¹ and 0.0148 s⁻¹; the kon is 701000 M⁻¹ s⁻¹ and 528000 M⁻¹ s⁻¹. Further, the binding result in [3] is “no binding”. In addition, the binding result in test [4] is on record as “no binding”. In [5], the Ka is 2.33e+08 M⁻¹ and the Kd is 4.29 nM.

B3: GM37 variant 3 (antibody, V domains shown)
VH: EVQLLESGGGLVQTGGSLRLSCAASGFTFSSYAMTWVRQAPGKGLEWVSAIRSHGDRTDYADSVKGRFTISRDNSQNTLYLQMNSLRAEDTAVYYCAKNWAPFDSWGQGTLVT
VL: not shown
In test [2], B3 registered a Kd of 40 nM, a koff of 0.0228 s⁻¹ and a kon of 577000 M⁻¹ s⁻¹.

B4: GM37 variant 1 (antibody, V domains shown)
VH: EVQLLESGGGLVQTGGSLRLSCAASGFTFSSYAMTWVRQAPGKGLEWVSAIRSSGDRTDYADSVKGRFTISRDNSQNTLYLQMNSLRAEDTAVYYCAKNWAPFDSWGQGTLVT
VL: not shown
In test [2], B4 returned a Kd of 22 nM, a koff of 0.0137 s⁻¹ and a kon of 634000 M⁻¹ s⁻¹.

B5: GM285 (antibody, V domains shown)
VH: EVQLLESGGGLVQPGGSLRLSCAASGFTFSRFTMTWVRQAPGKGLEWVSAISGSGGGTSYADSVKGRLTVSRDNSKNTLYLQMNSLRAEDTAVYYCAKNWAPFDYWGQGTLVT
VL: not shown
notes: Human IgG1/kappa
For B5, the binding result in test [6] is “no binding”. In addition, the binding result in test [7] is “no binding”. Moreover, in test [8], the Ka is 2.33e+08 M⁻¹ and the Kd was 4.3 nM.

B6: ch2E6 (antibody, V domains shown)
VH: QVQLQQPGAELVKPGASVKLSCTASGYTFTSYWMHWMKQRPGRGLEWIGRIDPNSGTTKYNVNFKTKATLTVDKPSSTAYMHLSSLTSEDSAVYYCARLGHYGNLYAMDYWGQGTSVT
VL: QIVLTQSPAIMSASPGEKVTMTCSASSSVSYMHWYQQKSGTSPKRWIYDTSKLASGVPTRFSGSGSGTSYSLTISSMDTEDAATYYCQQWSSNPPTFGAGTKLELK
notes: also called chimeric 2E6
For the molecule B6, in test [9], the KD improvement stood at 1 fold, the Ka is 2.38e+08 M⁻¹, the Kd came to 4.21 nM and the koff was found to be 0.000265 s⁻¹. This molecule came in with a kon in test [9] of 62900 M⁻¹ s⁻¹. In test [10], this molecule showed a KD improvement of 1 fold, a Ka of 1.76e+07 M⁻¹, a Kd of 56.7 nM and a koff of 0.00139 s⁻¹. Moreover, the kon in test [10] is 24500 M⁻¹ s⁻¹. In test [11], this molecule registered a KD improvement of 1 fold, a Ka of 1.76e+07 M⁻¹, a Kd of 56.7 nM and a koff of 0.00139 s⁻¹. The same molecule came in with a kon in test [11] of 24500 M⁻¹ s⁻¹.

B7: 2E6-HLD-1 (antibody, V domains shown)
VH: QVQLVQSGAEVKKPGASVKVSCKASGYTFTSYWMHWMRQAPGQGLEWIGRIDPNSGTTKYNVNFKTRATLTVDKSTSTAYMELSSLRSEDTAVYYCARLGHYGNLYAMDYWGQGTLVT
VL: EIVLTQSPATLSLSPGERATLSCSASSSVSYMHWYQQKPGQAPRRWIYDTSKLASGVPARFSGSGSGTDYTLTISSLEPEDFAVYYCQQWSSNPPTFGQGTKLEIKR
notes: Humanized 2E6 tested as IgG; also called Humanized HLD-1
As to B7, in test [9], the KD improvement turned out to be 2 fold, the Ka turned out to be 5.81e+08 M⁻¹, the Kd was 1.72 nM and the koff was found to be 0.000212 s⁻¹. This molecule also registered a kon in test [9] of 123000 M⁻¹ s⁻¹. Besides, in test [10], the KD improvement turned out to be 2.5 fold, the Ka was found to be 4.4e+07 M⁻¹, binding was characterised by a dissociation constant (Kd) of 22.7 nM and the koff turned out to be 0.000944 s⁻¹. The same molecule returned a kon in test [10] of 41600 M⁻¹ s⁻¹. In [11], this molecule showed a KD improvement of 2.5 fold, a Ka of 4.4e+07 M⁻¹, a Kd of 22.7 nM and a koff of 0.000944 s⁻¹. The molecule further came in with a kon in test [11] of 41600 M⁻¹ s⁻¹.

B8: 9C12 (antibody, V domains shown)
VH: QVQLVQSGAEVKKPGASVKVSCKASGYTFTSYWMHWMRQAPGQGLEWIGRIDPNSGTTKYNVNIKTRATLTVDKSTSTAYMELSSLRSEDTAVYYCARLGHYGNLYAMDYWGQGTLVT
VL: EIVLTQSPATLSLSPGERATLSCSASSSVSYMHWYQQKPGQAPRRLIYDTSKLASGVPARFSGSGSGTDYTLTISSLEPEDFAVYYCQQWSSNPPTFGQGTKLEIK
For the molecule B8, in [10], the KD improvement was 10 fold, the Ka came to 1.78e+08 M⁻¹, binding was put at a Kd of 5.62 nM and the koff turned out to be 0.000278 s⁻¹. Also, in test [10], the kon is 49500 M⁻¹ s⁻¹.

B9: 2E6-HLD-2 (antibody, V domains shown)
VH: QVQLVQSGAEVKKPGASVKVSCKASGYTFTSYWMHWVRQAPGQGLEWIGRIDPNSGTTKYNVNFKTRATLTVDKSTSTAYMELSSLRSEDTAVYYCARLGHYGNLYAMDYWGQGTLVT
VL: EIVLTQSPATLSLSPGERATLSCSASSSVSYMHWYQQKPGQAPRRWIYDTSKLASGVPARFSGSGSGTDYTLTISSLEPEDFAVYYCQQWSSNPPTFGQGTKLEIKR
notes: Humanized 2E6
As for B9, in test [9], the KD improvement came to 1 fold, the Ka came to 2.04e+08 M⁻¹, the Kd worked out at 4.91 nM and the koff turned out to be 0.000285 s⁻¹. Besides, the kon in [9] is 58000 M⁻¹ s⁻¹.

B10: 8D9 (antibody, V domains shown)
VH: QVQLVQSGAEVKKPGASVKVSCKASGYTFTSYWMHWMRQAPGQGLEWIGRIDPNSGTTKYNVNFKTRATLTVDKSTSTAYMELSSLRSEDTAVYYCARLGHYGNLYAKDYWGQGTLVT
VL: EIVLTQSPATLSLSPGERATLSCSASSSVSYIHWYQQKPGQAPRRWIYDTSKLASGVPARFSGSGSGTDYTLTISSLEPEDFAVYYCQQWSSNPPTFGQGTKLEIK
In test [10], B10 registered a KD improvement of 8.7 fold, a Ka of 1.53e+08 M⁻¹, a Kd of 6.52 nM and a koff of 0.000483 s⁻¹. In test [10], the kon is 74100 M⁻¹ s⁻¹.

B11: 7C4 (antibody, V domains shown)
VH: QVQLVQSGAEVKKPGASVKVSCKASGYTFTRYWMHWMRQAPGQGPEWIGRIDPNSGTTKYNVNFKTRATLTVDKSTSTAYMELSSLRSEDTAVYYCARLGHYGNLYAMDYWGQGTLVT
VL: EIVLTQSPATLSLSPGERATLSCSASSSVSFMHWYQQKPGQAPRRWIYDTSKLASGVPARFSGSGSGTDYTLTISSLEPEDFAVYYCQQWSSNPPTFGQGTKLEIK
In test [10], B11 registered a KD improvement of 7 fold, a Ka of 1.23e+08 M⁻¹, a Kd of 8.12 nM and a koff of 0.000997 s⁻¹. This molecule also yielded a kon in [10] of 123000 M⁻¹ s⁻¹.

B12: 2E6 HLD 3 (antibody, V domains shown)
VH: QVQLVQSGAEVKKPGASVKVSCKASGYTFTSYWMHWMRQAPGQGLEWIGRIDPNSGTTKYNVNFKTRVTLTVDKSTSTAYMELSSLRSEDTAVYYCARLGHYGNLYAMDYWGQGTLVT
VL: EIVLTQSPATLSLSPGERATLSCSASSSVSYMHWYQQKPGQAPRRWIYDTSKLASGVPARFSGSGSGTDYTLTISSLEPEDFAVYYCQQWSSNPPTFGQGTKLEIKR
In the case of B12, in test [9], the KD improvement worked out at 1 fold, the Ka worked out at 1.88e+08 M⁻¹, the koff worked out at 0.00026 s⁻¹ and the kon came to 48900 M⁻¹ s⁻¹.

In general, Kd refers to a measure of binding affinity in units of concentration. Broadly, the koff is a measure of how fast the partners let go of each other. Read a low koff as a long-lived complex. A word on the kon: it is the rate constant with which the complex forms. Higher therefore signals fast association.
